Here are results for 12 molecules from patent US20200399381A1 (I MAB BIOPHARMA US, published 2020).

As a reminder, the Kd is the equilibrium constant for the complex coming apart. High values mean weaker binding, low ones tighter binding. As usually defined, the koff is the rate constant with which the complex falls apart. Read a high koff as a short-lived complex. In general, kon refers to the second-order rate constant of association. Read a high kon as faster complex formation.

Where a chain is given by its changes, count along the chain named.

For the test, the target named is T1, human IFNAR-1 protein (form not stated) (human, UniProt P17181 28-436, limits assumed).
T1 construct: bispecific ELISA
T1 sequence (looked up): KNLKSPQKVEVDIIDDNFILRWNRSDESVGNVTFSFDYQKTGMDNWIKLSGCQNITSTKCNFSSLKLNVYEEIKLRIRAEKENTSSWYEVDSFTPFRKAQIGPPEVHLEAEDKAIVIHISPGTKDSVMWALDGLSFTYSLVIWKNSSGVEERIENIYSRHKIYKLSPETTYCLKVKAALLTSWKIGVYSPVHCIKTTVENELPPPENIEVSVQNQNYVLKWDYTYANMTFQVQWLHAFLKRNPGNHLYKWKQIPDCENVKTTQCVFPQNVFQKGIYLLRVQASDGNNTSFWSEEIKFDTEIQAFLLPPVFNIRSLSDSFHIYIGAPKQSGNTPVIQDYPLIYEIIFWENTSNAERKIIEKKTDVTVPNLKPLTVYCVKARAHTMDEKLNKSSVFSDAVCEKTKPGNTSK
As to the kind of experiment: affinity ranking of expressed humanized 485G10 IgGs (method not named).

B1: 485G10 humanized VH0 + VL1 (antibody, V domains shown)
VH: QVQLVQSGAEVKKPGASVKVSCKASGFNIKDYYIHWVRQAPGQGLEWMGRIDPEDAETKYAPKFQGRVTMTRDTSISTAYMELSRLRSDDTVVYYCARYHGYWALDYWGQGTLVTVSS
VL: DIQMTQSPSSLSASVGDRVTITCKTSQNVGTNVAWFQQKPGKAPKSLIYSTSYRYSGVPSRFSGSGSGTDFTLTISSLQPEDFATYYCHQYFSYPYTFGPGTKVDIK
notes: Humanized IgG expressed in HEK293; also called VH0 + VL1 (485G10)
For B1, the Kd amounted to 9.33 nM, the koff amounted to 0.00475 s⁻¹ and the kon came out at 509000 M⁻¹ s⁻¹.

B2: 485G10 humanized VH3 + VL1 (antibody, V domains shown)
VH: B1 VH with V20L, A24G, R38K, M48I, V68A, M70I, R72A, M81L, A97G
VL: B1 VL
notes: Humanized IgG expressed in HEK293; also called VH3 + VL1 (485G10)
B2 returned a Kd of 19.1 nM, a koff of 0.0185 s⁻¹ and a kon of 971000 M⁻¹ s⁻¹.

B3: 485G10 humanized VH0 + VL3 (antibody, V domains shown)
VH: B1 VH
VL: B1 VL with A13T, F36Y, S46P, L78V, V104L
notes: Humanized IgG expressed in HEK293; also called VH0 + VL3 (485G10)
Turning to B3, binding was characterised by a dissociation constant (Kd) of 1.07 nM, the koff turned out to be 0.000316 s⁻¹ and the kon was determined as 294000 M⁻¹ s⁻¹.

B4: 485G10 humanized VH3 + VL4 (antibody, V domains shown)
VH: B1 VH with V20L, A24G, R38K, M48I, V68A, M70I, R72A, M81L, A97G
VL: B1 VL with A13T, I21V, F36Y, S46P, L78V, V104L
notes: Humanized IgG expressed in HEK293; also called VH3 + VL4 (485G10)
In the case of B4, the dissociation constant Kd was 0.766 nM, the koff was found to be 0.000271 s⁻¹ and the kon was determined as 354000 M⁻¹ s⁻¹.

B5: 485G10 humanized VH3 + VL3 (antibody, V domains shown)
VH: B1 VH with V20L, A24G, R38K, M48I, V68A, M70I, R72A, M81L, A97G
VL: B1 VL with A13T, F36Y, S46P, L78V, V104L
notes: Humanized IgG expressed in HEK293; also called VH3 + VL3 (485G10)
For the molecule B5, the Kd was 0.841 nM, the koff came out at 0.000279 s⁻¹ and the kon is 332000 M⁻¹ s⁻¹.

B6: 485G10 humanized VH0 + VL2 (antibody, V domains shown)
VH: B1 VH
VL: B1 VL with A13T, F36Y, S46P
notes: Humanized IgG expressed in HEK293; also called VH0 + VL2 (485G10)
Molecule B6 came in with a Kd of 1.57 nM, a koff of 0.000439 s⁻¹ and a kon of 279000 M⁻¹ s⁻¹.

B7: 485G10 humanized VH2 + VL4 (antibody, V domains shown)
VH: B1 VH with V20L, R38K, M48I, R72A, A97G
VL: B1 VL with A13T, I21V, F36Y, S46P, L78V, V104L
notes: Humanized IgG expressed in HEK293; also called VH2 + VL4 (485G10)
Consider B7, for which binding was characterised by a dissociation constant (Kd) of 0.99 nM, the koff was 0.0003 s⁻¹ and the kon stood at 303000 M⁻¹ s⁻¹.

B8: 485G10 humanized VH2 + VL2 (antibody, V domains shown)
VH: B1 VH with V20L, R38K, M48I, R72A, A97G
VL: B1 VL with A13T, F36Y, S46P
notes: Humanized IgG expressed in HEK293; also called VH2 + VL2 (485G10)
B8 registered a Kd of 0.906 nM, a dissociation rate constant (koff) of 0.000298 s⁻¹ and a kon of 329000 M⁻¹ s⁻¹.

B9: 485G10 humanized VH2 + VL1 (antibody, V domains shown)
VH: B1 VH with V20L, R38K, M48I, R72A, A97G
VL: B1 VL
notes: Humanized IgG expressed in HEK293; also called VH2 + VL1 (485G10)
B9 returned a Kd of 20.5 nM, a koff of 0.00663 s⁻¹ and a kon of 323000 M⁻¹ s⁻¹.

B10: 485G10 humanized VH1 + VL1 (antibody, V domains shown)
VH: B1 VH with R72A
VL: B1 VL
notes: Humanized IgG expressed in HEK293; also called VH1 + VL1 (485G10)
B10: the Kd stood at 3.14 nM, the koff turned out to be 0.00103 s⁻¹ and the kon was 328000 M⁻¹ s⁻¹.

B11: 485G10 humanized VH0 + VL4 (antibody, V domains shown)
VH: B1 VH
VL: B1 VL with A13T, I21V, F36Y, S46P, L78V, V104L
notes: Humanized IgG expressed in HEK293; also called VH0 + VL4 (485G10)
B11: the Kd amounted to 1.25 nM, the koff amounted to 0.000318 s⁻¹ and the kon amounted to 255000 M⁻¹ s⁻¹.

B12: 485G10 humanized VH3 + VL2 (antibody, V domains shown)
VH: B1 VH with V20L, A24G, R38K, M48I, V68A, M70I, R72A, M81L, A97G
VL: B1 VL with A13T, F36Y, S46P
notes: Humanized IgG expressed in HEK293; also called VH3 + VL2 (485G10)
B12 had a Kd of 0.864 nM, a koff of 0.000264 s⁻¹ and a kon of 306000 M⁻¹ s⁻¹.
